According to patent publication US20260167959A1, “APTAZYME-BASED REGULATABLE GENE EXPRESSION SYSTEMS” (REJUVENATE BIO INC, priority 2022, published 2026):

B1: RA347 (nucleic acid)
DNA: GCGCGTCCTGGATTCGCGGAAACGCAGAATACCAGCATCGTCTTGATGCCCTTGGAAGTCTGTACATCCAGCTGACGAGTCCCAAATAGGACGAAACGCGC
modifications: expressed or natural sequence
B2: RA351 (nucleic acid)
DNA: GCGCGTCCTGGATTCGCGGAAACGCGTACATCCAGCGAGAATACCAGCATCGTCTTGATGCCCTTGGAAGTCTCTGACGAGTCCCAAATAGGACGAAACGCGC
modifications: expressed or natural sequence
B3: RA350 (nucleic acid)
DNA: GCGCAGAATACCAGCATCGTCTTGATGCCCTTGGAAGTCTGTCCTGGATTCGCGGAAACGCGTACATCCAGCTGACGAGTCCCAAATAGGACGAAACGCGC
modifications: expressed or natural sequence
B4: RA352 (nucleic acid)
DNA: GCGCGTCCTGGATTCGCGGAAACGCGTACATCCAGCTGACGAGTCCCAAATAGGACGAAACGCGCGAGAATACCAGCATCGTCTTGATGCCCTTGGAAGTCTCGC
modifications: expressed or natural sequence
B5: RA356 (nucleic acid)
DNA: GCGCGTCCTGGATTCGCGGAAACGCGTACATCCAGCTGACGAGTCCCAAATAGGACGAAAGAGAATACCAGCATCGTCTTGATGCCCTTGGAAGTCTCCGCGC
modifications: expressed or natural sequence
B6: RA355 (nucleic acid)
DNA: GCGCGTCCTGGATTCGCGGAAACGCGTACATCGAGAATACCAGCATCGTCTTGATGCCCTTGGAAGTCTCCAGCTGACGAGTCCCAAATAGGACGAAACGCGC
modifications: expressed or natural sequence
B7: RA348 (nucleic acid)
DNA: GCGCGTCCTGGATTCGCGGAAACGCGTACATCCAGCTGACGACGAGAATACCAGCATCGTCTTGATGCCCTTGGAAGTCTCGGTCCCAAATAGGACGAAACGCGC
modifications: expressed or natural sequence
B8: RA353 (nucleic acid)
DNA: GCGCGTCCTGGATTCGCGGAAACGCGTACATCCAGCTGACGAGTCCCAAATAGGACGAAACGCCGGAATACCAGCATCGTCTTGATGCCCTTGGAAGTCCGGCGC
modifications: expressed or natural sequence
B9: RA354 (nucleic acid)
DNA: GCGCGTCCTGGATTCGCGGAAACGCGTACATCCAGCTGACGAGTCCCAAATAGGAGTGATACCAGCATCGTCTTGATGCCCTTGGCAGCACTACGAAACGCGC
modifications: expressed or natural sequence
B10: RA349 (nucleic acid)
DNA: GCGCGTCCTGGATTCGCGGAAACGCGTACATCCAGCTGACGAGGAGAATACCAGCATCGTCTTGATGCCCTTGGAAGTCTCTCCCAAATAGGACGAAACGCGC
modifications: expressed or natural sequence
B11: RA346 (nucleic acid)
DNA: GCGCGTCCTGGATTCGCGGAAACGCGTACATCCAGCTGGAATACCAGCATCGTCTTGATGCCCTTGGAAGTCCGACGAGTCCCAAATAGGACGAAACGCGC
modifications: expressed or natural sequence
B12: RA034 (nucleic acid)
DNA: GCGCGTCCTGGATTCGCGGAAACGCGTACATCCAGCTGACGAGAGAATACCAGCATCGTCTTGATGCCCTTGGAAGTCTCGTCCCAAATAGGACGAAACGCGC
modifications: expressed or natural sequence

Each molecule was assayed on Renilla luciferase RNA (assay: Barcoded aptazyme variant library screen: un-cleaved Renilla luciferase RNA by barcode read counts, HEK293-T cells). Details: un-cleaved Renilla luciferase RNA by barcode read counts; with 1 mM theophylline (ON) over without theophylline (OFF); HEK293-T cells; triplicate.
Type: cell-based
In short: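 Aptazyme variants (seven theophylline aptamers inserted after each T3H48 ribozyme nucleotide, 9-nt barcoded) cloned into the 3′ UTR of Renilla luciferase in psiCHECK-2; cells cultured ± theophylline, in triplicate. RNA and DNA barcodes amplified and sequenced; normalized read counts gave un-cleaved RNA fraction and ON/OFF fold-change.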

| Molecule | Fold change in RNA expression between the ON state and the OFF state |
| --- | --- |
| B1 | 0.9 |
| B2 | 0.9 |
| B3 | 0.9 |
| B4 | 0.9 |
| B5 | 0.8 |
| B6 | 0.9 |
| B7 | 0.9 |
| B8 | 0.9 |
| B9 | 0.9 |
| B10 | 0.9 |
| B11 | 0.9 |

Same assay, conditions: un-cleaved Renilla luciferase RNA, HEK293-T cells cultured with 1 mM theophylline (ON) over without theophylline (OFF); barcode read counts, triplicate

| Molecule | Fold change in RNA expression between the ON state and the OFF state |
| --- | --- |
| B12 | 2.3 fold |
